# Source: patent publication US20110039770A1 (PHARMAGAP, published 2011)
# T1: PKC-ε (endogenous, IMR-32 lysate) (human, UniProt Q02156 1-737)
# T1 construct: Band 1 and Band 2 (alternate splicing variants, not identified further) are kept under one molecule; the band is named in the assay field of each row; also called PKC-epsilon; PKC-ε Band 1
# T1 sequence (looked up): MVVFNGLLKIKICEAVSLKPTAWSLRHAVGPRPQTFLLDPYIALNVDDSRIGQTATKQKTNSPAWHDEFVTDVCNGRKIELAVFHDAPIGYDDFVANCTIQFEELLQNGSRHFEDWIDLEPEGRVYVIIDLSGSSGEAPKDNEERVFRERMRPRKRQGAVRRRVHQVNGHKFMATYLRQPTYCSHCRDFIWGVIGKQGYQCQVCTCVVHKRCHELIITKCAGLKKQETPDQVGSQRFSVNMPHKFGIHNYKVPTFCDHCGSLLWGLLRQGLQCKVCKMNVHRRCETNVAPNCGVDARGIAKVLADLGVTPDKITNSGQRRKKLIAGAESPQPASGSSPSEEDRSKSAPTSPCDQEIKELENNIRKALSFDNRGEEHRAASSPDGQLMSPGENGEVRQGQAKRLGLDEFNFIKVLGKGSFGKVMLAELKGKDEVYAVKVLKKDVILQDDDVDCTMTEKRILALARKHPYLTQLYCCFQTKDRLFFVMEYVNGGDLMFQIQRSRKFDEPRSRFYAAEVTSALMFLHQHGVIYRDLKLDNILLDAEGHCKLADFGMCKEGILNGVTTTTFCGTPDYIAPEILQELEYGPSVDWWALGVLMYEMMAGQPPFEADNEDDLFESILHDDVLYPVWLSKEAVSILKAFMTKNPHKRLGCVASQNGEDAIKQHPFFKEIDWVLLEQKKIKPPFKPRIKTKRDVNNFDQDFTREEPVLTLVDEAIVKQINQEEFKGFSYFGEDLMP
# B1: PRE 4 (peptide)
# peptide: Ac-KDAQNLIGISI-NH2
# notes: also called peptide PRE 4
# What was measured:
# PKC-α (purified isoform) = target: T2, PKC-α (purified isoform) (Homo sapiens (Human), UniProt P17252 2-672); test: competitive ELISA, coated purified PKC-α, vs anti-PKC α (SC-208); PRE 50 µM
# T2 construct: also called purified PKC-alpha; commercially purified PKC-alpha
# Description: (§1) Greiner 96 well ELISA plates were coated with the appropriate PKC isoform diluted in PBSN (PBS with Calcium/Magnesium+0.05% Sodium azide w/w). 50 μL/well at 250 ng/mL was used. Control wells contained PBSN only. Plates were incubated overnight at 4° C.
# (§2) The plates were washed 3 times with 200 μL of dH₂O per well, then 100 μL of blocking solution was added per well and the plate incubated for 1 h at 37° C. The washing steps with dH₂O were repeated and 50 μL of the appropriate PRE solution (PRE stock solution [20 mM in DMSO] diluted in PBSN) was added and the plate incubated for 1 h at room temperature.
# (§3) 50 μL of 1:1000 dilution of Alkaline Phosphatase (AP) conjugated antibody (anti-rabbit for all except zeta, which was anti-goat) was then added and the plate incubated for 1 h at room temperature. Washing with dH₂O was then repeated. Finally, 100 μL of pNPP solution in pNPP buffer (2 mM MgCl₂, 100 mM Sodium bicarbonate in water, pH 9.8) was added to all wells and incubated for 8 minutes for α, βI, βII ε, and ζ, or for 15-20 mins for δ (until sufficient coloration is observed). The reaction was stopped by addition of Stop solution (2N NaOH) and the absorbance at 405 nm was read on a Galaxy Plate reader.
# PKC-δ (purified isoform) [1] = target: T3, PKC-δ (purified isoform); test: competitive ELISA, coated purified PKC-δ, vs anti-PKC δ (SC-213); PRE 50 µM
# T3 construct: also called PKC-delta
# T3 sequence (Q05655 whole entry, stated change not applied, canonical isoform): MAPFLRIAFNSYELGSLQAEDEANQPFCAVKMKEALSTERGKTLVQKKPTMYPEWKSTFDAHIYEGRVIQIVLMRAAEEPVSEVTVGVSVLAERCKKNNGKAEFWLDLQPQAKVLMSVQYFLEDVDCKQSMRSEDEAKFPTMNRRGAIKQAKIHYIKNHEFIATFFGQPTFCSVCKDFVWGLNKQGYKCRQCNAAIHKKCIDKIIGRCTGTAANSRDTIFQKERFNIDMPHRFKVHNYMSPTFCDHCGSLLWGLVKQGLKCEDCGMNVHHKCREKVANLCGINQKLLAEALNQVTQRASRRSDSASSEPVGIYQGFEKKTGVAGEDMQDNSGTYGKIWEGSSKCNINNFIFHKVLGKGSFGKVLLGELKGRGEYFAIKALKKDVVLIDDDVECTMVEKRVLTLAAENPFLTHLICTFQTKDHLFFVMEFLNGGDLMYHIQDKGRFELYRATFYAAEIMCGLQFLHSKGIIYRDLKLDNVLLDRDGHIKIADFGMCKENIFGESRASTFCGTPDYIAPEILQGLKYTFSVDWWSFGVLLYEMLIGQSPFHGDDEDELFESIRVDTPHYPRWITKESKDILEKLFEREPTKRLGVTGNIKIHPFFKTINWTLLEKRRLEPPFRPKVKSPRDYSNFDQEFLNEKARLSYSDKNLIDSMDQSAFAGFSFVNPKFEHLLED
# Description: as §1, §2, §3
# PKC-δ (purified isoform) [2] = target: T3, PKC-δ (purified isoform); test: competitive ELISA, coated purified PKC-δ, vs anti-PKC δ (SC-213); PRE 100 µM
# Description: as §1, §2, §3
# [3] = target: T4, PKC-βI (purified isoform) (Homo sapiens (Human), UniProt P05771 2-671); test: competitive ELISA, coated purified PKC-βI, vs anti-PKC βI (SC-209); PRE 100 µM
# T4 construct: also called PKC-beta I; PKC beta 1
# T4 sequence (P05771 2-671 limits assumed): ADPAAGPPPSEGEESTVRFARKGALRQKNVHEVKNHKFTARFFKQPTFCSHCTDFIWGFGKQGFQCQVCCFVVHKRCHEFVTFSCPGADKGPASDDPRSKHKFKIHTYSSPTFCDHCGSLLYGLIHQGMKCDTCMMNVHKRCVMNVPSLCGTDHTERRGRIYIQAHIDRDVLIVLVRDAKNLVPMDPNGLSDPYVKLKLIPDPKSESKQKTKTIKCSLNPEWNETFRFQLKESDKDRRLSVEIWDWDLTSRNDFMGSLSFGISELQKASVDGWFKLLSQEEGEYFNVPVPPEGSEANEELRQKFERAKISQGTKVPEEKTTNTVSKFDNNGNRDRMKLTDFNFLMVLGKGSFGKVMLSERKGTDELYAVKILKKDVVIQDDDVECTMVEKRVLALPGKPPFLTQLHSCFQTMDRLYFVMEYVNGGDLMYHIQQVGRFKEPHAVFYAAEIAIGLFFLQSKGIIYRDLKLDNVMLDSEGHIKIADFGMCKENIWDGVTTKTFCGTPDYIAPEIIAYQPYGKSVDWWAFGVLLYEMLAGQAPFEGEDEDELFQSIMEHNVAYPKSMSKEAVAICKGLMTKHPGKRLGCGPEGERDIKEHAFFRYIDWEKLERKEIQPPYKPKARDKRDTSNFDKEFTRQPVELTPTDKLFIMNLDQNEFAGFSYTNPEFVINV
# Description: as §1, §2, §3
# [4] = target: T4, PKC-βI (purified isoform); test: competitive ELISA, coated purified PKC-βI, vs anti-PKC βI (SC-209); PRE 200 µM
# Description: as §1, §2, §3
# [5] = target: T5, PKC-βII (purified isoform) (Homo sapiens (Human), UniProt P05771 2-621); test: competitive ELISA, coated purified PKC-βII, vs anti-PKC βII (SC-210); PRE 50 µM
# T5 construct: also called PKC-beta II; PKC beta 2
# T5 sequence (P05771 other isoform, or with tags, fused parts or gaps limits assumed): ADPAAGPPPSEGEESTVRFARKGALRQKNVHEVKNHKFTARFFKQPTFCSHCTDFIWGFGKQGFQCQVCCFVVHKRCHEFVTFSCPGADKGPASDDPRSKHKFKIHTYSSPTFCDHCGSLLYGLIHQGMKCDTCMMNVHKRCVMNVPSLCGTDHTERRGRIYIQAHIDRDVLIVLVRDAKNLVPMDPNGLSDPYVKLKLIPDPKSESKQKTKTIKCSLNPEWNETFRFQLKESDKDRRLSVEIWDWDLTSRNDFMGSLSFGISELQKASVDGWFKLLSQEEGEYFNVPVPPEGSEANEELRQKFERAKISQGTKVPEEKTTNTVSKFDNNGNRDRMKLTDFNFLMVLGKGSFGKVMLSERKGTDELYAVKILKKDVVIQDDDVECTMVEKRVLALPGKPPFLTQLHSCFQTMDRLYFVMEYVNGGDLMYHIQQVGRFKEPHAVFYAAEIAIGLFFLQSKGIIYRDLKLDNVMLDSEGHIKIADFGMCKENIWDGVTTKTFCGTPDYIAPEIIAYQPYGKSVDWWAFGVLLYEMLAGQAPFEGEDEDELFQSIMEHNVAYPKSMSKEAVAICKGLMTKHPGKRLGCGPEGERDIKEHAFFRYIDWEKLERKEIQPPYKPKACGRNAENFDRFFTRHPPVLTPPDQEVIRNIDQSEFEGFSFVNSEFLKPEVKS
# Description: as §1, §2, §3
# [6] = target: T1, PKC-ε (endogenous, IMR-32 lysate); test: WB competition Protocol B, IMR-32 extract, vs anti-PKC-ε Ab; PKC-ε Band 1; 50 µg peptide
# Description: (§4) The ability of the peptides PRE 2 and PRE 3 (see Table 4) to interfere with the binding of a PKC-α-specific polyclonal antibody (Santa Cruz Biotechnology, Inc.) to PKC-α was determined using a modified version of the protocol outlined above in which the test peptide was added directly to the cell extract prior to electrophoresis at a concentration of either 5× or 15× the concentration of the protein applied to each well of the gel for the Western blots (20 μg).
# (§5) Peptides PRE 2, PRE 3 and PRE 4 (see Table 4) were tested for their ability to interfere with the binding of isoform-specific polyclonal antibodies (Santa Cruz Biotechnology, Inc.) to […] using the general protocol described in Example 3. Two bands, representing alternate splicing variants of PKC-ε, were identified on the Western blot using this anti-PKC-ε antibody.
# [7] = target: T1, PKC-ε (endogenous, IMR-32 lysate); test: WB competition Protocol B, IMR-32 extract, vs anti-PKC-ε Ab; PKC-ε Band 2; 50 µg peptide
# Description: as §4, §5
# [8] = target: T1, PKC-ε (endogenous, IMR-32 lysate); test: WB competition Protocol B, IMR-32 extract, vs anti-PKC-ε Ab; PKC-ε Band 1; 100 µg peptide
# Description: as §4, §5
# [9] = target: T1, PKC-ε (endogenous, IMR-32 lysate); test: WB competition Protocol B, IMR-32 extract, vs anti-PKC-ε Ab; PKC-ε Band 2; 100 µg peptide
# Description: as §4, §5
binder,measurement,setting,value
B1,"relative binding capacity (100-%n, DMSO subtracted)",PKC-α (purified isoform),6.46%
same,"relative binding capacity (100-%n, DMSO subtracted)",PKC-δ (purified isoform) [1],29.2%
same,"relative binding capacity (100-%n, DMSO subtracted)",PKC-δ (purified isoform) [2],30.7%
same,"relative binding capacity (100-%n, DMSO subtracted)",[3],15.7%
same,"relative binding capacity (100-%n, DMSO subtracted)",[4],7.46%
same,"relative binding capacity (100-%n, DMSO subtracted)",[5],2.69%
same,Band Intensity,[6],0
same,Inhibition (%),[6],100%
same,Relative Intensity (%),[6],0%
same,Band Intensity,[7],0
same,Inhibition (%),[7],100%
same,Relative Intensity (%),[7],0%
same,Band Intensity,[8],0
same,Inhibition (%),[8],100%
same,Relative Intensity (%),[8],0%
same,Band Intensity,[9],0
same,Inhibition (%),[9],100%
same,Relative Intensity (%),[9],0%
